Here are results for one substance from publication PMC9210659.

This experiment addresses C16-Pks13(S1533A) (Pks13(S1533A) loaded with a C16 chain on the AT catalytic serine) (Mycobacterium tuberculosis H37Rv) (UniProt I6X8D2). Nature of the experiment: SEC + other: SAXS.

As a reminder, the stoichiometry N is a count of units in the complex or per binding partner. Take “C16-Pks13(S1533A) (Pks13(S1533A) loaded with a C16 chain on the AT catalytic serine) (from UniProt I6X8D2 1-1733) (enzyme)”: the percent dimer was 60% and the stoichiometry N is 2.
